Measured values reported in publication PMC2756588.

T1: Bzz1-2, P38822
T1 sequence (P38822 568-633, looked up): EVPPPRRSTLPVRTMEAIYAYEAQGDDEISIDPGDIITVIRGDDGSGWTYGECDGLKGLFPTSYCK

T2: Fus1, P11710
T2 sequence (P11710 432-512, looked up): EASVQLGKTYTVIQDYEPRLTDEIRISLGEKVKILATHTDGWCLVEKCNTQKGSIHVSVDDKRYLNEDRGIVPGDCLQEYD

T3: Bbc1, P47068
T3 sequence (P47068 1-78, looked up): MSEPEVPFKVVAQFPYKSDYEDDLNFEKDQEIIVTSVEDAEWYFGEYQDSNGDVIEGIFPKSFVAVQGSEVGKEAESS

T4: Pin3, Q06449
T4 sequence (Q06449 53-122, looked up): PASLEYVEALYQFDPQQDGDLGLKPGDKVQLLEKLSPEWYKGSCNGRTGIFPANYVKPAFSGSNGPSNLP

T5: Abp1, P15891
T5 sequence (P15891 535-592, looked up): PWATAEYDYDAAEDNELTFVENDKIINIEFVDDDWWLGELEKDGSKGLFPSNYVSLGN

T6: Lsb3, P43603
T6 sequence (P43603 385-451, looked up): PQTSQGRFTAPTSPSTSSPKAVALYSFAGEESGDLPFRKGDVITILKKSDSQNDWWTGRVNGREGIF

T7: Sla1-2, P32790
T7 sequence (P32790 60-140, looked up): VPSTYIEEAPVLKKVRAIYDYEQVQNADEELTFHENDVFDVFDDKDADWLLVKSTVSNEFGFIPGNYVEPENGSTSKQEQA

T8: Bud14, P27637
T8 sequence (P27637 247-328, looked up): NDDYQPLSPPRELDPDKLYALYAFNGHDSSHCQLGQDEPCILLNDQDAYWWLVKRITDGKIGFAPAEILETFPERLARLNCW

T9: Cdc25, P04821
T9 sequence (P04821 50-136, looked up): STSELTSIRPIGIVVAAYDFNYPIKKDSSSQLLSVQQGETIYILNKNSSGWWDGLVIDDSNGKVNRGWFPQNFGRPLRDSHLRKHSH

T10: Boi1, P38041
T10 sequence (P38041 1-86, looked up): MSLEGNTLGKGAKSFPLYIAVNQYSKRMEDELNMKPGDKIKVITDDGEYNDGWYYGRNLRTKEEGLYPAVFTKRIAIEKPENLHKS

T11: Cyk3, Q07533
T11 sequence (Q07533 1-83, looked up): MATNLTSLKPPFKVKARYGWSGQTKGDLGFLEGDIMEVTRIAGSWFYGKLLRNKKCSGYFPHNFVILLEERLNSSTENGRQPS

T12: Lsb1, P53281
T12 sequence (P53281 45-122, looked up): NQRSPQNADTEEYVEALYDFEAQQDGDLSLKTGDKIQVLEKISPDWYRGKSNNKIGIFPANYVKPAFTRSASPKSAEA

T13: Hse1, P38753
T13 sequence (P38753 208-285, looked up): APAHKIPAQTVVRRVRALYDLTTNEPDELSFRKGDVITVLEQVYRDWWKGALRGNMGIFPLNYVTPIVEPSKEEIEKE

T14: Boi2, P39969
T14 sequence (P39969 32-116, looked up): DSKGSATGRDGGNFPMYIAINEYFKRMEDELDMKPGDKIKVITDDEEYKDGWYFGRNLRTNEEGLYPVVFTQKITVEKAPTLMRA

T15: Sla1-3, P32790
T15 sequence (P32790 344-424, looked up): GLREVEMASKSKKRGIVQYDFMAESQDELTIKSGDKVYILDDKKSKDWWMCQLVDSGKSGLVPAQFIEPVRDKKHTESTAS

T16: Lsb4, P32793
T16 sequence (P32793 402-468, looked up): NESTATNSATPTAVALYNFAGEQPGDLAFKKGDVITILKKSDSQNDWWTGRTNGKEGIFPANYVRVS

T17: Myo5, Q04439
T17 sequence (Q04439 1072-1160, looked up): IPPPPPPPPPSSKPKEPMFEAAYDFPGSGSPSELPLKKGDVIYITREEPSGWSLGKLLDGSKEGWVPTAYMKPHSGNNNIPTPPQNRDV

T18: Hof1, Q05080
T18 sequence (Q05080 590-669, looked up): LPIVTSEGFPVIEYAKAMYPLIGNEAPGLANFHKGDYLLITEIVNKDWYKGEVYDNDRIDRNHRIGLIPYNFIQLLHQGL

T19: Bzz1-1, P38822
T19 sequence (P38822 478-572, looked up): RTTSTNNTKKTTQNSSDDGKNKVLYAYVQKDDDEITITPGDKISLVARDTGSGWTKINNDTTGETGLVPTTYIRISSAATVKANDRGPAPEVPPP

T20: Pex13, P80667
T20 sequence (P80667 295-386, looked up): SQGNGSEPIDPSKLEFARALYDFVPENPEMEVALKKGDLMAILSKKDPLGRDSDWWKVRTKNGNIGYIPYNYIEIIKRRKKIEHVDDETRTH

T21: Nbp2, Q12163
T21 sequence (Q12163 103-180, looked up): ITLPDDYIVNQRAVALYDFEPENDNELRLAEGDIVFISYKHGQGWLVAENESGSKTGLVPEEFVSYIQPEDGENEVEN


Assays:
Test in all cases: SPOT array
Bzz1-2, P38822 = molecular target: T1, Bzz1-2, P38822; details: median of control spots 4538
GST = details: median of control spots 978
Fus1, P11710 = molecular target: T2, Fus1, P11710; details: median of control spots 1200
Myo3, P36006 = details: median of control spots 468
Bbc1, P47068 = molecular target: T3, Bbc1, P47068; details: median of control spots 796
Pin3, Q06449 = molecular target: T4, Pin3, Q06449; details: median of control spots 2171
Abp1, P15891 = molecular target: T5, Abp1, P15891; details: median of control spots 935
Sho1, P40073 = details: median of control spots 1148
Lsb3, P43603 = molecular target: T6, Lsb3, P43603; details: median of control spots 406
Sla1-2, P32790 = molecular target: T7, Sla1-2, P32790; details: median of control spots 712
Bud14, P27637 = molecular target: T8, Bud14, P27637; details: median of control spots 956
Bem1-1, P29366 = details: median of control spots 4282
Cdc25, P04821 = molecular target: T9, Cdc25, P04821; details: median of control spots 969
Boi1, P38041 = molecular target: T10, Boi1, P38041; details: median of control spots 1162
Cyk3, Q07533 = molecular target: T11, Cyk3, Q07533; details: median of control spots 1451
Lsb1, P53281 = molecular target: T12, Lsb1, P53281; details: median of control spots 388
Hse1, P38753 = molecular target: T13, Hse1, P38753; details: median of control spots 1727
Bem1-2, P29366 = details: median of control spots 4347
Boi2, P39969 = molecular target: T14, Boi2, P39969; details: median of control spots 1161
Sla1-3, P32790 = molecular target: T15, Sla1-3, P32790; details: median of control spots 5475
Rvs167, P39743 = details: median of control spots 2707
Lsb4, P32793 = molecular target: T16, Lsb4, P32793; details: median of control spots 397
Myo5, Q04439 = molecular target: T17, Myo5, Q04439; details: median of control spots 471
Hof1, Q05080 = molecular target: T18, Hof1, Q05080; details: median of control spots 4086
Bzz1-1, P38822 = molecular target: T19, Bzz1-1, P38822; details: median of control spots 4446
Pex13, P80667 = molecular target: T20, Pex13, P80667; details: median of control spots 1341
Nbp2, Q12163 = molecular target: T21, Nbp2, Q12163; details: median of control spots 357

Bem1-2, P29366, sequence (P29366 139-227): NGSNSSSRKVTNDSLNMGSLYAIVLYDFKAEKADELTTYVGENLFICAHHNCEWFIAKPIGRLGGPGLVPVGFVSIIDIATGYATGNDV
Bem1-1, P29366, sequence (P29366 55-141): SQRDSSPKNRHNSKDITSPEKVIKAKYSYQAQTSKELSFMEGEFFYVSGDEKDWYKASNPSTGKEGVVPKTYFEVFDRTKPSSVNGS
Sho1, P40073, sequence (P40073 287-367): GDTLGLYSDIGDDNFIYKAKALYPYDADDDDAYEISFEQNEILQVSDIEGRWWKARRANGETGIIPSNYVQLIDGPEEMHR
Rvs167, P39743, sequence (P39743 419-482): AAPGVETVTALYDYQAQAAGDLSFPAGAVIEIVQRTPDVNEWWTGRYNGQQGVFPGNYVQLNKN

Row | Binder | SPOT intensity (Bzz1-2, P38822) | SPOT intensity (GST) | SPOT intensity (Fus1, P11710) | SPOT intensity (Myo3, P36006) | SPOT intensity (Bbc1, P47068) | SPOT intensity (Pin3, Q06449) | SPOT intensity (Abp1, P15891) | SPOT intensity (Sho1, P40073) | SPOT intensity (Lsb3, P43603) | SPOT intensity (Sla1-2, P32790) | SPOT intensity (Bud14, P27637) | SPOT intensity (Bem1-1, P29366) | SPOT intensity (Cdc25, P04821) | SPOT intensity (Boi1, P38041) | SPOT intensity (Cyk3, Q07533) | SPOT intensity (Lsb1, P53281) | SPOT intensity (Hse1, P38753) | SPOT intensity (Bem1-2, P29366) | SPOT intensity (Boi2, P39969) | SPOT intensity (Sla1-3, P32790) | other results
1 | LTRRFPFLFPFDTRM | 3 | 0 | 100 | 4 | 69 | 18 | 18 | 57 | 0 | 1 | 21 | 1 | 21 | 6 | 3 | 0 | 126 | 61 | 0 | 129 | SPOT intensity (Rvs167, P39743): 0; SPOT intensity (Lsb4, P32793): 4; SPOT intensity (Myo5, Q04439): 0; SPOT intensity (Hof1, Q05080): 116; SPOT intensity (Bzz1-1, P38822): 3; SPOT intensity (Pex13, P80667): 16; SPOT intensity (Nbp2, Q12163): 16
2 | RLSFFFPLDPAYIRN | 3 | 1 | 159 | 4 | 12 | 13 | 28 | 68 | 0 | 0 | 12 | 0 | 28 | 6 | 1 | 0 | 91 | 43 | 0 | 113 | SPOT intensity (Rvs167, P39743): 0; SPOT intensity (Lsb4, P32793): 0; SPOT intensity (Myo5, Q04439): 0; SPOT intensity (Hof1, Q05080): 48; SPOT intensity (Bzz1-1, P38822): 0; SPOT intensity (Pex13, P80667): 21; SPOT intensity (Nbp2, Q12163): 21
3 | HGKRRAPLLLAKLDV | 1 | 1 | 0 | 5 | 17 | 9 | 79 | 85 | 0 | 0 | 14 | 0 | 7 | 0 | 0 | 0 | 0 | 0 | 0 | 1 | SPOT intensity (Rvs167, P39743): 0; SPOT intensity (Lsb4, P32793): 4; SPOT intensity (Myo5, Q04439): 0; SPOT intensity (Hof1, Q05080): 0; SPOT intensity (Bzz1-1, P38822): 0; SPOT intensity (Pex13, P80667): 5; SPOT intensity (Nbp2, Q12163): 1
4 | HHKRRPTTIDVPGLT | 13 | 0 | 180 | 7 | 2 | 28 | 26 | 67 | 3 | 2 | 8 | 22 | 42 | 2 | 0 | 1 | 3 | 28 | 1 | 4 | SPOT intensity (Rvs167, P39743): 0; SPOT intensity (Lsb4, P32793): 5; SPOT intensity (Myo5, Q04439): 4; SPOT intensity (Hof1, Q05080): 6; SPOT intensity (Bzz1-1, P38822): 0; SPOT intensity (Pex13, P80667): 18; SPOT intensity (Nbp2, Q12163): 1
